Residue numbers refer to the chain shown, from its start. Read-outs that look alike come from different tables or passages of the source. Values belong to the binder of their own block, whether it stands above or below them.
Tests used:
[1] = biological target: T1, Human NOTUM (human, UniProt Q6P988 20-496); experiment: cell-based or functional assay
T1 sequence: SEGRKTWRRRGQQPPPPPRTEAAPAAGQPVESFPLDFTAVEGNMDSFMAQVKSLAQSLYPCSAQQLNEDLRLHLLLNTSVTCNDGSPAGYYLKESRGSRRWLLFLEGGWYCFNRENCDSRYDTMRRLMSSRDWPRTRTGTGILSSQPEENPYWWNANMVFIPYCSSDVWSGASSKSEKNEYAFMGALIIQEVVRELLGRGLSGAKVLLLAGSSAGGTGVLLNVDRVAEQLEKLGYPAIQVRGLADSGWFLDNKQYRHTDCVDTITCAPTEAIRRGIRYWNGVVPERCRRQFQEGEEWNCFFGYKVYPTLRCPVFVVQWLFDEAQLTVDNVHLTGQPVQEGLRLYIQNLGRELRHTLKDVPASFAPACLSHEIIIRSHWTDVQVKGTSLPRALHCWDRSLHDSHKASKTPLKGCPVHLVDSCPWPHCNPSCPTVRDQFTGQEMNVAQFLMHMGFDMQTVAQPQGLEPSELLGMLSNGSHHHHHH

[2] = biological target: T2, Mouse NOTUM (mouse, UniProt Q8R116 20-503); experiment: cell-based or functional assay
T2 sequence: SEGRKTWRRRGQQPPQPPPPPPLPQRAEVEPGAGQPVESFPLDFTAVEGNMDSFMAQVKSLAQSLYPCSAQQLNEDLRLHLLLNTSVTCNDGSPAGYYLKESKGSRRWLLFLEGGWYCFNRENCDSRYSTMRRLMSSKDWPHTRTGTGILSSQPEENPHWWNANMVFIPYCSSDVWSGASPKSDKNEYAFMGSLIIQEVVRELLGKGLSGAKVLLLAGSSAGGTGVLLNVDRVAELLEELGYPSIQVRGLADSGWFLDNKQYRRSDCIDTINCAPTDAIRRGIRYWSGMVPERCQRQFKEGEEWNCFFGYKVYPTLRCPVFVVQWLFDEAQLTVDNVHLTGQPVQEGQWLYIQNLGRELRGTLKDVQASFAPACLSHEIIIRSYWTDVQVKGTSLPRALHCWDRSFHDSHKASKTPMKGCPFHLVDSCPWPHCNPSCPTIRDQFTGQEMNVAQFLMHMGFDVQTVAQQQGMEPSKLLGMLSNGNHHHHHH

[3] = biological target: T1, Human NOTUM; experiment: cell-based or functional assay; remark: listed apart in the source
[4] = biological target: T1, Human NOTUM; experiment: Biacore 3000
Description: (§1) Binding affinities of certain anti-NOTUM MAbs was determined using a Biacore 3000. In order to obtain meaningful affinity values for binding to multimeric […] NOTUM protein, antibody FAb fragments were generated by digestion of whole IgG with the protease Ficin, followed by removal of undigested IgG and Fc fragments by protein A affinity chromatography. Affinity values for binding of FAbs and whole IgG to human NOTUM corresponded, and their affinity values were in the single to low double digit nM range, as shown in Table 3.

[5] = biological target: T3, Rhesus monkey NOTUM (rhesus monkey, UniProt Q6P988 20-491 (human entry)); experiment: ELISA
T3 construct: Produced by transient transfection; also called Rhesus macaque NOTUM; rhesus NOTUM
T3 chain: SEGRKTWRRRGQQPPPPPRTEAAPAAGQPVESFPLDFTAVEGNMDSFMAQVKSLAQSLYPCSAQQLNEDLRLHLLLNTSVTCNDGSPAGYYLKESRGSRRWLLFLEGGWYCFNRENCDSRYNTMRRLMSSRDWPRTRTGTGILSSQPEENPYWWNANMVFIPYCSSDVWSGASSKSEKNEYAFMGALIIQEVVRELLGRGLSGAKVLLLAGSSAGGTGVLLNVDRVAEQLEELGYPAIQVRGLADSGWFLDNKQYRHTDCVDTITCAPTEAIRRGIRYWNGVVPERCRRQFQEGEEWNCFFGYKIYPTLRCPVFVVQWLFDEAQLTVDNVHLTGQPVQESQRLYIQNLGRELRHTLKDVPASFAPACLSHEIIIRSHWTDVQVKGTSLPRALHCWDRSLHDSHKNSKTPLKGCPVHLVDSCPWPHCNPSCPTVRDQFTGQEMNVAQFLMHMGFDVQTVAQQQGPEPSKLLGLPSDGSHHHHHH

[6] = biological target: T4, Guinea pig NOTUM (guinea pig, UniProt Q6P988 21-496 (human entry)); experiment: ELISA
T4 construct: Expressed by transient transfection
T4 chain: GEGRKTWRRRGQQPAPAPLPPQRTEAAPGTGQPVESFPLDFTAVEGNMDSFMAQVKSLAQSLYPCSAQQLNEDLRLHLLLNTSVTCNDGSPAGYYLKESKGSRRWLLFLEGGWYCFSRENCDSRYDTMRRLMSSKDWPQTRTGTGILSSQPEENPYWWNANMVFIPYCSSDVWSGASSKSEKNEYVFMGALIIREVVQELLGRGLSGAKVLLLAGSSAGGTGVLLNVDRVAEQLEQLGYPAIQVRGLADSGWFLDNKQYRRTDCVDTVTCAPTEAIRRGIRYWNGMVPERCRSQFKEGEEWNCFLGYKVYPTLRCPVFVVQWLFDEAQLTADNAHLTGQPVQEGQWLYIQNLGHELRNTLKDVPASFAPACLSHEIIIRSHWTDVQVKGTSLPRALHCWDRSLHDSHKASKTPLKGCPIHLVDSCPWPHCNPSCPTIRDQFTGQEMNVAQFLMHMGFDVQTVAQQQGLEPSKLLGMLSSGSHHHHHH

[7] = biological target: T5, Human NOTUM D137A/R139A (human, UniProt Q6P988 20-496); experiment: ELISA
T5 construct: Alanine mutant, expressed and secreted after transient transfection; little to no activity in the OPTS assay
T5 sequence: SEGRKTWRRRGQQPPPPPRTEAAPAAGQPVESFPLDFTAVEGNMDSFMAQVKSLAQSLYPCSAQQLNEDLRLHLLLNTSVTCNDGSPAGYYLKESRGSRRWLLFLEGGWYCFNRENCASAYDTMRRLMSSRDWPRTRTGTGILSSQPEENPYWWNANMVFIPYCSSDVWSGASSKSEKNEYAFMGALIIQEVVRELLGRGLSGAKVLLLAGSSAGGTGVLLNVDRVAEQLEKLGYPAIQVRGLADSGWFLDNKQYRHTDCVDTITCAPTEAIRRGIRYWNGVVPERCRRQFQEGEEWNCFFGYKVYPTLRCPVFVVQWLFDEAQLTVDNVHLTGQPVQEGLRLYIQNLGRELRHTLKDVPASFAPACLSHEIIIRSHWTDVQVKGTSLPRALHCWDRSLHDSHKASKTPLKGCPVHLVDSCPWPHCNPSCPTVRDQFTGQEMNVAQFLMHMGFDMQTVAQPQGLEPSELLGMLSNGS

[8] = biological target: T6, Human NOTUM R144A/R145A (human, UniProt Q6P988 20-496); experiment: ELISA
T6 construct: Alanine mutant, expressed and secreted after transient transfection
T6 sequence: T5 sequence with A118D, A120R, R125A, R126A

[9] = biological target: T2, Mouse NOTUM; experiment: Biacore 3000
Description: as §1

[10] = biological target: T1, Human NOTUM; experiment: cell-based or functional assay; remark: listed apart in the source
[11] = biological target: T2, Mouse NOTUM; experiment: cell-based or functional assay; remark: listed apart in the source
[12] = biological target: T1, Human NOTUM; experiment: ELISA (column 'Human NOTUM binding')

OPTS IC50 (nM; human NOTUM) [1]: 5.77 nM | Wnt signaling IC50 (nM; human NOTUM) [1]: 14 nM | OPTS IC50 (nM; mouse NOTUM) [2]: 29.2 nM | IC50, neutralization in the Wnt signaling assay [3]: 14 nM | Kd [4]: 5.99 nM | kon [4]: 151000 M⁻¹ s⁻¹ | binding result [5]: binds | binding result [6]: binds
B1: MAb 2.1029 (antibody, IgG2a, V domains shown)
VH: QVQLKESGPGLVAPSQSLSITCTVSGFSLTSYGVHWVRQPPGKGLEWLGVIWAGGSTNYNSALMSRLSISKDNSKSQVFLKMNSLQTDDTAIYFCARDGDYGTIYAMDYWGQGTSVTVSS
VL: DIQMTQTTSSLSASLGDRVTISCRASQDISNYLNWYQQKPDGTVKLLIYYTSRLHSGVPSRFTGSGSGTDYSLTISNLEQEDIATYFCQQGKTLPRTFGGGTMLEIKR
notes: Mouse monoclonal antibody from Campaign 2, IgG2a

OPTS IC50 (nM; human NOTUM) [1]: 15.5 nM | Wnt signaling IC50 (nM; human NOTUM) [1]: 45.9 nM | OPTS IC50 (nM; mouse NOTUM) [2]: 35.6 nM | Wnt signaling IC50 (nM; mouse NOTUM) [2]: 3.75 nM | Kd [4]: 17.6 nM | kon [4]: 47900 M⁻¹ s⁻¹ | binding result [5]: binds | binding result [7]: no binding | binding result [6]: binds | binding result [8]: no binding
B2: MAb 2.78 (antibody, V domains shown)
VH: DVQLVESGGGLVQPGGSRKLSCAASGFTFSSFGMHWVRQAPEKGLEWVAYITSGSGAIYYADTVRGRFTISRDTPKNTLFLQMTSLRSEDTAMYYCARSADGLDYWGQGTSVTVSS
VL: DIQMTQSPASLYVSVGETVTITCRASENIYSNLAWYQQKQGKSPQLLVYGATNLADGVPSRFSGSGSGTQYSLKINSLKSEDFGSYYCQHFWGTPFTFGSGTKLEIKR
notes: Mouse monoclonal antibody from Campaign 2 (raised against mouse NOTUM), IgG2b

Kd [4]: 15.4 nM | koff [4]: 0.00136 s⁻¹ | kon [4]: 87700 M⁻¹ s⁻¹ | Kd [9]: 4.99 nM | kon [9]: 39100 M⁻¹ s⁻¹
B3: 2.78 Fab (Fab, V domains shown)
VH: B2 VH
VL: B2 VL
notes: Fab made by digestion of whole IgG (mouse IgG2b) with ficin

OPTS IC50 (nM; human NOTUM) [10]: > 167 nM | Wnt signaling IC50 (nM; human NOTUM) [10]: 15.5 nM | OPTS IC50 (nM; mouse NOTUM) [11]: 197 nM
B4: MAb 1.731 (antibody, IgG1, V domains shown)
VH: EVQLQQSGPELVKPGASVKVSCKASGYPFTDYFIHWVKQTHGKSLEWIGYFFPKNGANGYNQKFEGKVTLTVDKSSSTAYMELRSLTSEDSAVYYCARRYGNYYSMDYWGQGTSVTVSS
VL: SFVMTQTPKFLLVSAGDRVTITCKASQSVGDDVAWYQQKPGQSPTLLIYRVSNRYTGVPDRFTGSGYGTDFTFTINTVQAEDLAVYFCQQDYSSPYTFGGGTQLEVKR

OPTS IC50 (nM; mouse NOTUM) [2]: 26.1 nM | binding result [12]: binds
B5: MAb 2.55 (antibody, IgG2a, V domains shown)
VH: EVQLQQSGTVLARPGALVKMSCKASGYTFTSYWMHWVKQRPGQGLEWIGAIYPGKSDTRYNQKFKDKAKLTAVTSTSTAYMDLSSLTDEDSAVYYCSRRYGNFYAMDYWGQGTSVTVSS
VL: SIVMTQTPKFLLVSAGDRVTMTCKASQSVSNDVAWYQQKPGQSPELLIYYASDRYTGVPDRFTGSGYGTDFTLTISTVQAEDLAVYFCQQDYSSPYTFGGGTKLETKR
notes: as for B1

Kd [4]: 0.91 nM | kon [4]: 899000 M⁻¹ s⁻¹ | binding result [9]: no binding
B6: 1.802 Fab (Fab, V domains shown)
VH: EVQLVESGGGLVKPGGSLKLSCAASGFTFSDYGMHWFRQAPEKGLEWVAYISSGSRTVYYADTVKGRFTISRDNAKNTLSLQMTSLRSEDTAMYYCARKHYNGGYFDVWGTGTTVTVSS
VL: DIVLTQSPASLAVSLGQRATISCRASKIVSTSGYSYMHWYQQKPGQPPKLLIYLASNLESGVPARFSGSGSGTDFTLNIHPVEEEDAATYYCQHSRELPPTFGSGTKLEIKR
notes: Fab made by digestion of whole IgG (mouse IgG1) with ficin

From patent US20130302346A1 (LEXICON PHARMACEUTICALS, published 2013)
